In PMC5394796 (Journal of molecular biology, 2016):

Target: the molecule itself
Assay: disulfide-linked dimer fraction in lipid vesicles by SDS-PAGE

SSPGTPASPCSLSGIIIGVTVAAVVLIVAVFVSKSLLWKK [DR5-L TM peptide (synthetic 40-residue DR5-L transmembrane domain)]
stoichiometry N: 2
